Laboratory results taken from patent publication US20060234940.

Tests used:
Glucagon = Glucagon (UniProt P01275)
His^1-Ser^2-NPY = His^1-Ser^2-NPY (UniProt P01303)
[Gly]^2-glucagon = [Gly]^2-glucagon (UniProt P01275)
[1] = test system: peptides of the growth hormone releasing factor (GRF) family

Sequence of Glucagon (P01275 53-81): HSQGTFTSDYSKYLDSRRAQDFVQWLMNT
Sequence of [Gly]^2-glucagon (P01275 whole entry, looked up): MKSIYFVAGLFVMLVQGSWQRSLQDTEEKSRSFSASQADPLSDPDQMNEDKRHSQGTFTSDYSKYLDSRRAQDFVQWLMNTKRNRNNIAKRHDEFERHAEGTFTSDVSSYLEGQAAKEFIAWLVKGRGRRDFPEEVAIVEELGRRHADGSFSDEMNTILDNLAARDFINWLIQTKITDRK

Substance | Km [M] of DP IV-catalyzed hydrolysis (Glucagon) [M] | Km [M] of DP IV-catalyzed hydrolysis (His^1-Ser^2-NPY) [M] | Km [M] of DP IV-catalyzed hydrolysis ([Gly]^2-glucagon) [M] | hydrolysis (MALDI-TOF MS, capillary zone electrophoresis) [1]
DP IV | 3.8e-06 | 6.8e-05 | 2.2e-05 | 
recombinant human DP IV, wild type |  |  |  | All peptides were hydrolyzed by porcine DP IV, recombinant human DP IV or DP IV activity of the human serum
